Test results taken from the supplement of paper PMC10126150.
± gives the standard deviation of the averaged measurements.

test system: ATP; assay: switch fluorescence ratio, 500 uM ATP over buffer (Cy3 cluster intensity, sum of 5 cycles each) (fold (ratio)); higher = stronger signal-on switching upon ATP binding; sequences stand for … in TCGTCGGCAGCGTCAGATGTGTATAAGAGACAGTTTTTTTTTTTTTTTTTTTTTTTTT…TC; conditions: aptamer strand: ATP DNA aptamer (quencher-CACCTGGGGGAGTATTGCGGAGGAAGG + anchor), 100 nM annealed; ATP concentration: 500 uM
In short: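 Cy3-labelled switching-strand clusters on a modified Illumina MiSeq flow-cell were annealed to 100 nM quencher-labelled ATP aptamer, imaged in selection buffer, then imaged after 15 min with 500 uM ATP at 22 °C. Five buffer/ATP cycles ran, with NaOH stripping and re-annealing between them. The fluorescence ratio is summed target-cycle over summed buffer-cycle Cy3 intensity per cluster, averaged per switch-domain sequence. Clusters outside 100-1000 RFU were excluded.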
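Note: ATP exposure 15 min at 22 °C before imaging.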

Sequence	switch fluorescence ratio
TGATGCATCG	1 ± 0.034
TGATGGAAAA	0.998 ± 0.023
TGATGGATAT	0.9921 ± 0.0021
TGATGGGGGG	0.994 ± 0.021
TGATGGGGTT	0.9969 ± 0.0078
TGATGGGTAG	0.998 ± 0.028
TGATGGTGGC	0.997 ± 0.017
TGATGTGGCG	0.994 ± 0.041
TGATGTGGTG	0.976 ± 0.018
TGATGTTATG	0.9911 ± 0.0025
TGATTAAAGG	1.02 ± 0.025
TGATTAAATA	0.994 ± 0.028
TGATTACTAG	0.974 ± 0.017
TGATTCCATT	0.9991 ± 0.0052
TGATTCTAAG	0.977 ± 0.019
TGATTCTTCG	1.01 ± 0.023
TGATTCTTGA	1.03 ± 0.064
TGATTGAGCC	0.998 ± 0.047
TGATTGATTG	1.03 ± 0.066
TGATTGCAGC	0.994 ± 0.028
TGATTGCCCT	0.9925 ± 0.0044
TGATTGGGAA	0.995 ± 0.021
TGATTGGGAC	0.9673 ± 0.0074
TGATTGTATT	0.979 ± 0.015
TGATTGTTAG	0.988 ± 0.023

Sequence	switch fluorescence ratio
TGATTTAATT	0.97 ± 0.036
TGATTTAGGA	1.01 ± 0.036
TGATTTATTG	0.985 ± 0.03
TGATTTATTT	0.9927 ± 0.0048
TGATTTCACG	1.02 ± 0.011
TGATTTCTTT	0.997 ± 0.0018
TGATTTGACA	1.01 ± 0.013
TGATTTGGGT	1.01 ± 0.021
TGATTTTACG	0.983 ± 0.019
TGATTTTGGT	1.01 ± 0.025
TGCAAAAGGG	1.024 ± 0.0074
TGCAAAATAA	1.17 ± 0.24
TGCAAAATTG	0.995 ± 0.024
TGCAAAGGTG	1.34 ± 0.094
TGCAAATTCC	1.11 ± 0.021
TGCAACACAT	1.03 ± 0.029
TGCAACGTTT	0.971 ± 0.024
TGCAAGAAGT	1.022 ± 0.0069
TGCAAGGGTT	1.12 ± 0.088
TGCAAGGTTA	1.02 ± 0.051
TGCAAGGTTT	1.05 ± 0.1
TGCAAGTGGC	1.09 ± 0.15
TGCAATAATA	1.06 ± 0.091
TGCAATGTTT	1.38 ± 0.52
TGCACAGGCT	1.119 ± 0.0062

Sequence	switch fluorescence ratio
TGCACATTCC	1.7 ± 0.15
TGCACCCGTA	1.054 ± 0.0013
TGCACGCAGC	1.25 ± 0.09
TGCACGGTTG	1.002 ± 0.0026
TGCACTCTCA	1.04 ± 0.032
TGCAGAAGCC	1.02 ± 0.026
TGCAGACAGA	1.02 ± 0.055
TGCAGCTGCG	0.974 ± 0.049
TGCAGGAGAA	0.9718 ± 0.0087
TGCAGGAGCT	1.01 ± 0.032
TGCAGGATGC	0.971 ± 0.027
TGCAGGGAGT	1.04 ± 0.037
TGCAGGGCAG	0.98885 ± 0.00071
TGCAGGGGCT	1.15 ± 0.22
TGCAGGTGGC	1.13 ± 0.035
TGCAGGTTTT	1.01 ± 0.054
TGCAGTAGCG	0.9936 ± 0.0051
TGCAGTGCGT	1.0018 ± 9.8e-05
TGCAGTGGGA	1.02 ± 0.016
TGCAGTTTGT	0.9929 ± 0.0065
TGCATCAGCT	1.03 ± 0.046
TGCATGGCTG	0.99 ± 0.01
TGCATGGGGT	1.01 ± 0.022
TGCATTACGT	1.35 ± 0.015
TGCATTATTA	0.995 ± 0.049

Sequence	switch fluorescence ratio
TGCATTGCTG	1.01 ± 0.038
TGCATTTCAG	1 ± 0.025
TGCCAATGTG	0.989 ± 0.013
TGCCACGTAA	1.3 ± 0.065
TGCCACTGGG	1.06 ± 0.019
TGCCAGTTGT	1.006 ± 0.0076
TGCCGAGTGC	1.046 ± 0.0083
TGCCGCTTAA	1.193 ± 0.0089
TGCCGGAATA	1.38 ± 0.041
TGCCGGGCTT	1.01 ± 0.042
TGCCGGGGAT	1.01 ± 0.015
TGCCGGGGGT	1.03 ± 0.088
TGCCGGGGTC	1 ± 0.048
TGCCGGTTGC	0.99 ± 0.12
TGCCTAATTG	0.977 ± 0.026
TGCCTACGGG	1.02 ± 0.028
TGCCTCGGCG	1.0022 ± 0.00021
TGCCTGGCAG	1.08 ± 0.1
TGCCTGGCTG	0.99 ± 0.05
TGCCTTGGGG	1.07 ± 0.16
TGCGAACACT	1.002 ± 0.0064
TGCGAGGGCA	1.02 ± 0.0087
TGCGATAGAA	0.994 ± 0.043
TGCGATTTAC	1.15 ± 0.024
TGCGCAAGGG	1.27 ± 0.31

Sequence	switch fluorescence ratio
TGCGGAGTAC	1.33 ± 0.14
TGCGGCCCAT	0.979 ± 0.016
TGCGGCGGGG	1.07 ± 0.035
TGCGGCTTCA	1.01 ± 0.016
TGCGGGATTA	1.1 ± 0.18
TGCGGGGGCA	1.02 ± 0.025
TGCGGGGGGA	1.03 ± 0.036
TGCGGGGGTA	0.999 ± 0.019
TGCGGGGTTT	1.02 ± 0.054
TGCGGGTGCT	1.04 ± 0.042
TGCGGGTTTT	1.02 ± 0.016
TGCGGTATGG	1.03 ± 0.017
TGCGGTTGTT	0.999 ± 0.046
TGCGGTTTGA	1.01 ± 0.012
TGCGTAAGGG	1.03 ± 0.011
TGCGTCGCCT	1.013 ± 0.0049
TGCGTGGTGG	1.03 ± 0.019
TGCGTTAAGG	1 ± 0.031
TGCGTTATCG	1.025 ± 0.0072
TGCGTTCTGG	1.048 ± 0.007
TGCTAACTCG	1 ± 0.018
TGCTAACTTT	0.999 ± 0.052
TGCTAATTGA	1.01 ± 0.037
TGCTACAGTT	0.985 ± 0.024
TGCTACCGGG	1.058 ± 0.0016

Sequence	switch fluorescence ratio
TGCTAGGCTA	1.02 ± 0.025
TGCTAGGGGC	1.07 ± 0.036
TGCTATATTT	1.01 ± 0.024
TGCTATTGGT	1.03 ± 0.035
TGCTCATTTT	0.992 ± 0.032
TGCTCGGGCA	1.014 ± 0.0072
TGCTCGGGGA	1.021 ± 0.0023
TGCTGACGGT	0.993 ± 0.029
TGCTGAGACA	1.01 ± 0.012
TGCTGCAAAG	0.9943 ± 0.0049
TGCTGGTAGC	0.995 ± 0.042
TGCTGGTCGG	0.985 ± 0.035
TGCTGGTGCC	1.02 ± 0.013
TGCTGTGGGG	1 ± 0.029
TGCTTAAGTT	0.999 ± 0.021
TGCTTACAAA	1.01 ± 0.027
TGCTTACCCA	1.03 ± 0.017
TGCTTAGGAA	1.005 ± 0.0072
TGCTTAGTTC	0.959 ± 0.046
TGCTTCATTT	1.023 ± 0.0018
TGCTTCGACG	0.9996 ± 0.0012
TGCTTCTATA	1.01 ± 0.051
TGCTTGAA	0.962 ± 0.021
TGCTTGATGG	0.9851 ± 0.0044
TGCTTGCGGA	1.02 ± 0.023

Sequence	switch fluorescence ratio
TGCTTGTTCG	1.029 ± 0.0097
TGCTTTAAGG	1.02 ± 0.04
TGCTTTAAGT	0.9912 ± 0.0029
TGCTTTCCTT	1.035 ± 0.0034
TGCTTTGCCT	1.03 ± 0.013
TGCTTTTATT	1 ± 0.022
TGCTTTTGTC	1.01 ± 0.078
TGCTTTTTAG	0.988 ± 0.029
TGCTTTTTTT	0.966 ± 0.024
TGGAAAAGAT	0.995 ± 0.016
TGGAAAAGCG	0.976 ± 0.012
TGGAAAGGCG	1.04 ± 0.06
TGGAAATAAA	0.9968 ± 0.0051
TGGAAATTTG	1.01 ± 0.036
TGGAAGATGT	1.02 ± 0.03
TGGAAGGTTT	1.08 ± 0.11
TGGAATAGAA	1.01 ± 0.02
TGGAATAGGG	0.992 ± 0.011
TGGAATGGAA	0.9717 ± 0.0076
TGGAATTGGA	1.03 ± 0.093
TGGAATTTAA	0.984 ± 0.017
TGGACGAGGG	0.992 ± 0.041
TGGAGAAATT	0.952 ± 0.13
TGGAGAAGGC	0.977 ± 0.12
TGGAGATAGG	0.994 ± 0.016

Sequence	switch fluorescence ratio
TGGAGATTTT	1.015 ± 0.0062
TGGAGCCAGG	1.08 ± 0.064
TGGAGCCTAT	0.991 ± 0.031
TGGAGCTGGG	1.31 ± 0.5
TGGAGGGGTA	1.05 ± 0.053
TGGAGGTAGT	0.993 ± 0.033
TGGAGGTTTT	1.07 ± 0.045
TGGAGTAGC	1.07 ± 0.078
TGGAGTCCAT	1.026 ± 0.0098
TGGAGTGCTT	0.983 ± 0.0022
TGGAGTGGAG	0.989 ± 0.023
TGGATAAGGA	0.983 ± 0.013
TGGATAATCG	0.996 ± 0.024
TGGATAATTT	0.9962 ± 0.0084
TGGATATGTG	1.01 ± 0.018
TGGATCTGCC	1.036 ± 0.0056
TGGATCTGCG	1.01 ± 0.023
TGGATGAGGG	0.99 ± 0.03
TGGATGGGAG	0.9922 ± 0.0028
TGGATGGGCT	1.03 ± 0.037
TGGATGGGGC	1 ± 0.012
TGGATGGTGG	0.9906 ± 0.0024
TGGATTAGGG	1 ± 0.023
TGGATTAGTT	0.96734 ± 0.00041
TGGATTGTGT	0.9735 ± 0.0032
